From US20260234276A1

Target: human CCR8 (human) (UniProt P51685)
Experiment: flow cytometry, hCCR8 transfected CHOK1 cells

% positive cells: 42.5% | MFI fold change to isotype ctrl: 2.76 fold
B1: 3-27 (antibody, V domains shown)
VH: EVKLVESGGGLVKSGGSLKLSCAASGFTFSSYAMSWVRQTPEKRLEWVASINSGGSIYYPDSVKGRFTISRDNARNILYLQMSSLRSEDTAMYYCARGFGAYWGQGTLVTVSA
VL: DIQMTQSPSSLSASLGERVTLTCRASQDIGSSLHWLQQEPDGTIKRLIYATSSLDSGVPKRFSGSRSGSDYSLTISSLESEDFVDYYCLQYATSPTFGGGTKLEIK
